assay: soluble on expression in E. coli; label from the status in PepcDB or PDB records

Sequence	soluble on expression in E. coli
MCELLGMSANVPTDICFSFTGLVQRGGGTGPHKDGWGITFYEGKGCRTFKDPQPSFNSPIAKLVQDYPIKSCSVVAHIRQANRGEVALENTHPFTRELWGRNWTYAHNGQLTGYKSLETGNFRPVGETDSEKAFCWLLHKLTQRYPRTPGNMAAVFKYIASLADELRAKGVFNMLLSDGRYVMAYCSTNLHWITRRAPFGVATLLDQDVEIDFSSQTTPNDVVTVIATQPLTGNETWQKIMPGEWRLFCLGERVV	not soluble
MCGQKFELKIDNVRFVGHPTLLQHALGQISKTDPSPKREAPTMILFNVVFALRANADPSVINCLHNLSRRIATVLQHEERRCQYLTREAKLILALQDEVSAMADGNEGPQSPFHHILPKCKLARDLKEAYDR	not soluble
MCILFIALNAHPQYPLIICANRDEFHHRPTAPAQFWPPERNMLAGKDLQAGGTWFGVNTQGQLAGVTNLRVAQKNQEPMRSRGELVIQALNSGSLICPNWLVEHAQDYQPFNLVFGQGTNLYCFNSIRRETVKLTQGFHAISNGAMDDVWPKMAKGQRSLEALIQQSAQLEVESLIKLMQDDSQPQDNELPDTGVGLEWKRRLAAIYIRHPDYGTRSTSILLQNAQGEIQFTEVRYDGKGRRLGQQDFHFTLPPQLPPEPDCLVVFLEHHHHHH	not soluble
MCIMCELKNFRRNITCFEGYDENSFIGKWYDDGVWDDEEYWKLENDLIEVRKKYPYPMDIPRYVVIGIGTIIDFLMVPNWKLFEIKASPWLPDSVGINERYERLKTMLRYIFTEKDIVNVQFDYYNKK	not soluble
MCLGIPARVVEVLDGPLPMAVVDMAGEQRPCSVMYVPEVQVGQFVLLQNGYAMEVLDEKSAQESLATIAEFNLVQQVQLAPREPR	not soluble
MCLICDRIKMIKINQNKFFVKELKTGYVVLGDNQHFKGYTLFLYKEHENELYQLEPNEKLNFLEEMSLVGEAVSKAFECEKMNYELLGNGDSHLHWHLFPRISGDLGEYGYYGKGPVWWYPREKMYSTDNEPTDEELEKLKQRLNVELDRLFYEKLEHHHHHH	not soluble
MCMGIFNRISNMIKAKTNSALDEMENPVELLDQKIRDMEKSFNEGKRSSAQIFGNLKDTEKKMNEAKEESAQYDEKVRLAMSKGNEELAKKALKLKLDSDKKFESLKASYEGQRAKADVLKGKLVELEKELDKTRSYRDEAVARLNNAEASKQINEVIANVQSKSNSINIDDIERSISRKESYAAGLEELKGESLDDEFAKLEELSLDDELNKYRTQNTQEDKTSDSEVDLELEKYKNKLEHHHHHH	not soluble
MCMSATLSRPGCGACCIAPSISSPIPGMPQGKPAGSRCVQLDDDMRCRIFGHPDRPDVCSSLQPSTELCADDREQAMTWLLKLEELTLPARLEHHHHHH	not soluble
MCPFDVLASVKDDPSLSPQLREKIGGALTRLREICKTADQPSVAKALPRSCAHNYFKEMISGHAPLRFSCHSSESTHTRVKHFDIASSRLPGPIVMSSSKTLMQRTTPALQSPKEIFAELNVIAFQTLRYIDEVEQIEFDVTNVREHDGSIMEDKERLFLSVCCSVFANFSFFASLHINAEKFLHFLRKLFTCYPLDNSYHNATHAADALQMMSLFFREPTVNFLFSDEEIAICFLAVLAVDVAHPGASDTLLVALDHPLASVFGDVAITEHASLLVLTSLLVLEDNFFFSTPDMAVSVDSAHLLKEALYDVVLNAALRSRPSLMSALRDIETSGRITDADAPKLMAALLVMACNSFAFRSQAQCCRMGAWFLSELHREECEMERHGIRVTLPHVAGADCAAVLSDYINVVVKPVTAATLALVPRDLQDRLEWNADLVDAAASTGGRACKVVVENSLVQWMTSSLSVMEILKKVATHASSVDRKASKCAILNASPSRSQGTAPDMMRADSLSSNSSTSGSMSAAKRDEATSNCPQLSFTSEPCSAAGSPTARPGRSEHYFSFLRLYDKCERAGESAKNFVGQLIFLALQLDPRYIAAYARKEYGDDCCGAECAEMGLLISKMEEAPSTAEVIASRPPGGSFSNRVADEIDHTDSFVLLLMDMYCSREAALAEMESVVLVSDKAKTPPPAEPAAPKAVPQFQQNSPIRMPVNTESKNTGPRLRLVP	not soluble
MCQSNQIVSHFLSHRNVTNELAEKISKDHYSYKPAETSMSAEELVKHILTSFHLFANVIKEGNASPFQNKQEETETDLNVLAKTYTEKTVAILEQLTEEQLDREIDLTSAFGRKVTGRALLQLAMEHEIHHKGNLFVYVREMGHTELPFYQQRMLEHHHHHH	soluble
MCRLLGFATAGSNTNLNGVLGMQNVRDFRNLSEIHNDGWGAALITVPDESPYRRDGGAPTPETGTAIYKNTIAARHDPIFDELANTPARGGLWHLRLASSNLPLILENQQPFYANGLSFIHNGDISDDQGRNIITNRAFPVDPSIVQSTGGRSDSAIFFAVILQYIGFGFALDEAVAQAVRELRKSYPKSSYNCMIQSQDQFIALCAAGREVTSKRIVEIYDQYGRGEQARDYRVLRYRALGGNDDQSKGVVVASSGFDQRAEDGWTRLENDQMIVASNRTGEFRVRSI	soluble
MDADEGQDMSQVSGKESPPVSDTPDEGDEPMPIPEDLSTTSGGQQSSKSDRVVASNVKVETQSDEENGRACEMNGEECAEDLRMLDASGEKMNGSHRDQGSSALSGVGGIRLPNGKLKCDICGIICIGPNVLMVHKRSHTGERPFQCNQCGASFTQKGNLLRHIKLHSGEKPFKCHLCNYACRRRDALTGHLRTHSVIKEETNHSEMAEDLCKIGSERSLVLDRLASNVAKRKSSMPQKFLGDKGLSDTPYDSSASYEKENEMMKSHVMDQAINNAINYLGAESLRPLVQTPPGGSEVVPVISPMYQLHKPLAEGTPRSNHSAQDSAVENLLLLSKAKLVPSEREASPSNSCQDSTDTESNNEEQRSGLIYLTNHIAPHARNGLSLKEEHRAYDLLRAASENSQDALRVVSTSGEQMKVYKCEHCRVLFLDHVMYTIHMGCHGFRDPFECNMCGYHSQDRYEFSSHITRGEHRFHMS	not soluble
MDAIITGESERIGLSVIDNNDVEHLIETNESGEITYHEQDGYPDDSSKRTDEGNEYVNQARKYAKYYVYLKRGYDTVSAPENPVRIDAVRQAIAQMDLETFETHFGDLYQQFSSETDGSAEPVYDVPPQATTPPIYAQNVYLGIDPLETDLGDELAAKHDLDITAESAADVAIADLSTEEIKQWGEFTGEFATRAIEEQIDLSDAVYIDNTSQLYVKHPEGTDLVAADDHLEPTSREPDTVIELLPIELESLEYFQSFMDHYLRCQIRDVFIEMGVVPPEEFRVLGLGQFMAAHCYSYIDFYPEFHNPESGAFTQQTSLF	not soluble
MDAQYDISFADVEKAHINIRDSIHLTPVLTSSILNQLTGRNLFFKCELFQKTGSFKIRGALNAVRSLVPDALERKPKAVVTHSSGNHGQALTYAAKLEGIPAYIVVPQTAPDCKKLAIQAYGASIVYCEPSDESRENVAKRVTEETEGIMVHPNQEPAVIAGQGTIALEVLNQVPLVDALVVPVGGGGMLAGIAITVKALKPSVKVYAAEPSNADDCYQSKLKGKLMPNLYPPETIADGVKSSIGLNTWPIIRDLVDDIFTVTEDEIKCATQLVWERMKLLIEPTAGVGVAAVLSQHFQTVSPEVKNICIVLSGGNVDLTSSITWVKQAERPASYQSVSVHHHHHH	soluble
MDAVVATQTPAEVFDVVVVGGGPAGATAATDLARAGRRVALLDPEGRPKPCGGAIPPRLMSEFAIPDDLPCAQVSGARALAPSGRVVDMPITGAVVSMVDRAVFDPWLRARAHQAGACRLHGRFEGFDRQEDGALVVLWRPEGAAVANRIVARYVVGADGARSKVAALAVAGAAPPCVAAYHEIIRAPAAPAASAPTPATAAGPAYDPARCDVIYRGDISPDFYGWIFPHGETLSIGSGTAVKGFSLREAVALLRREAGLDGLEVVRREGAPIPLRPRKRWDNGRDVVLIGDAAGVVAPASGEGIYYAMASGKMAAEALGEALAGAGPAALAQVRRRFLKAHGKTFWSLGLLQRFWYRSDRWRESFVAICADRDVQRLVWQSYLTKDLARGNMGAYMRIFFKDVAHLIGIAKSLEHHHHHH	not soluble
MDAWKEITKTTENDGVSTCSLSSIAFDPYSELVWTGHKNGQIKSSFGPSLTSYTQFIGHEGPVHQVLPQERGVFSLSSKSLRLSNRKGTIRWRYHSVPCVQRSMIILYSCFLCSKHAVLISRDSDCIDYRAMFYQSRNNPEVVIGGYHQKLTVVNAERGISIHKDKNVSDIFIMRRNRLLCCGSTNGEIILRDPNSFQPVNKVVAHTGTISDIDTSGNLLLSCGYSLRHGTYMLDPFVKVWDLRNLSSLVPIPFPAGPTIIRMHPKLSTTAVVCSCSGQFHIVDTGNPLDAKLMQIPLTSYLTGMDIASTGDAMVFTDVEDNIHLWSPLENPSFSDLKLPIQLPNTSTETVQLENNDPLNSIGLPYYKDELLSSWSKYLIFDVGKPILDSNLLIAKQISENSHPVPQEIKSFHRNQIIEVPWLNRKLISEGATPKFHSERQKDIMSGNDIEGSASYFEEIEDTISGPDSIPKFYQRPVIKYSKFGIEDFDFGFYNKTKYAGLETDITNSYCNSVLQLLSYVPSFSKAAISHSLGPCDLMECLLCELGFLFAMLKESTGRNCQATNFLRAFSNSSFAQSLGIVFDDYSDGTFPDSFVIQKFTKFMLTEISRIADYEDKKDGTSFPVSFLLKSFCIPEMQTYRCGICGITSQKIKSSLYIIDLHYPSQQLESILSFEWLFKMSLDRRVDLPPGWCEYCLAHQPFLLRSFIRSLPDCLFINTQVKHHEHWKLWARKNWLPKKLHLRRVNDTMQCVSQKISNLDKDQQSLSVYVLRGIIYEIRQNGEEPHFVSTIRVSDNTSSDNPDDNRWYIFNDFLVKEVTEEEALTVHGPWKIPIIVYYEKLDTKIPQWDEVSDYTLLYQPYSLNKNPPINKIQPLTTDEMLYPKMLVGIDSEFVALQQEETEVRSDGTKSTIKPSKLSLARVSVLRGEGPNKGLPFIDDYVATDDKVTDYLTEYSGIHPGDLDPDRSPYNVVPLKVAYKKLRLLVNAGCIFVGHGLQKDFRIINLLVPPEQVVDTVDLFFLSSRQRKLSLKFLAWYLLDEEIQLTEHDSIEDALTALKLYDCYDKLKSQGKLEETLDNIYEVGRRFKFRPPSVASMSLEDRNSYGDESVISNQTN	soluble
MDDDFLPRRLKYSKHSLMLVALDYIPKELHKCLDMDRLEDVSAGGAYTTKQMLEEILNSDSRFRIYGNAEVFEKLLEKYMNFTSCREKFGFEKLQVLCVPIPMSPNLKGEKYLTKQDMFEHVQFYLMDVFHHTGFPFDNVVISLAFIKFRADRLNGCMEFVSNAREVLNSIESEIDQFLDELLDILNAEYFPKNYALPSKNPSFDTLYKQWKSFFPDWKPDELDSIQRFLEDRYSHLPPHKNAEKYGGILFVNHYLTNKYRELIDSRPEVFLPYNAMNRHKAPITVRVILFKDTKLVLRGELYKAMNQAYPDRVPIDYTDDLEEGIIYAMNFEDVFKEFGDLWYDIEFILTKVTRTNNATPILTLSGEFCIPGLQAFYNIFHVMNNVLRLFQKVKKEMWHFVCGYVKILEVRLKPFEDTPCFITNTALETIIQELCEYWRMFENAPFKDIRTVKGATFTADDLKNELSHIGVLDIFPELGELVDTGYQAILEVKQNADNLKTWDLMDYLESTLIFCFSSRFEFLNNLLEIQEGIHPKNENLANIFLGITSKPENLLPYLIDKSRYQDVLPTVPLERHRVRVTYNFSIDDETISEPTPVPQQLEKKTENCSECNDVRMEMNTVKDVLQNVQKQLKNMQQNSEQFETKLVASDNKTKNFEKQLEDERRKNNKHLESSRKTLISKNEQLEALKRRATALSNCQAENQTLKFKIAEHHLLEKQLNISNKDVTQARDQLSGQISELEIQLKSELKTVQHLKKEQTISCNLTNEITKLKDQIEREKLCSKQLEKEISQLRTEADEMNIVMTQSLEMENLQLRDATKKFETENASLLKTNQQLSIQNEEQKRLIQVLLEKQQTAPSSSDFPVPSTQMTDNEENSRQQLWKYQKIKDSFRDGIKLRKAEAMVKKLTSLNRDPGVHQMAHRELENFKKLTSHYLQAIEMNILKIKNNGSSDLEQLPEAPKFSDEFMRFYRNATGKQTLTSASFSSGNSRGTQSYGSSISTMPSTSSRGNVQHHSGSAVRGQSITPTGLSQVPMSPRKLFSQPNIVTASITSTELDDTECAICLDEMTNFKETIKCQCRRRFHLECATKWLNEKRECPTCRKLLLNPSDYPPLN	not soluble

From the DeepSol protein solubility set
